The values below come from US20130183378A1 (CEDARS SINAI MEDICAL CENTER, published 2013).

In assay [1] the target is T1, HLA-A*0201 on T2 cells (human).
T1 construct: the class I molecule on T2 cells that the added peptide stabilises; also called HLA-A2; HLA-A2 molecules
Kind of assay: T2 cell HLA-A*0201 stabilisation; 100 µM peptide overnight, Brefeldin A, BB7.2 mAb staining, flow cytometry; MFI minus no-peptide control. The protocol:
The cells were then incubated with Brefeldin A (Sigma, St. Louis, Mo.) at 10 μg/ml for 1 hour, washed, incubated at 37° C. for 0, 3, or 6 hours in the presence of Brefeldin A (0.5 μg/ml), and then stained with BB7.2 mAb.
In general terms: A flow cytometer gives signals particle by particle.

Assay [2] concerns the target T1, HLA-A*0201 on T2 cells. The assay is described as follows: T2 cells incubated overnight with 0, 10 or 100 µM peptide, Brefeldin A, BB7.2 mAb staining, flow cytometry; fluorescence increased in a dose-dependent manner. The protocol: T2 cells were incubated overnight with 0 μM, 10 μM, or 100 μM of SEQ ID NO:11. The cells were then incubated with Brefeldin A (Sigma, St. Louis, Mo.) at 10 μg/ml for 1 hour, washed, incubated at 37° C. in the presence of Brefeldin A (0.5 μg/ml), and then stained with BB7.2 mAb. Fluorescence intensity was measured by flow cytometry.

B1: CD133-301 (peptide)
peptide: SLNDPLCLV
notes: Free peptide added to T2 cells; also called peptide 301
For B1, in the assay with HLA-A*0201 on T2 cells [1], the “MFI (0 hour)” value turned out to be 10.7 MFI, the “MFI (3 hour)” value is 14.3 MFI and the “MFI (6 hour)” value was 13.3 MFI.

B2: mouse counterpart of SEQ ID NO:1, MLLQVSHYL (SEQ ID NO:11) (peptide)
peptide: MLLQVSHYL
notes: Free peptide added to T2 cells at 0, 10 or 100 µM; also called mouse peptide
For the molecule B2, in the assay with HLA-A*0201 on T2 cells [2], the binding result is “binds”.

B3: CD133-117 (peptide)
peptide: LLFIILMPLV
notes: Free peptide added to T2 cells; also called peptide 117
Take B3: in the assay with HLA-A*0201 on T2 cells [1], the “MFI (0 hour)” value came to 5.5 MFI, the “MFI (3 hour)” value worked out at 7.5 MFI and the “MFI (6 hour)” value was determined as 1.01 MFI.

B4: CD133-708 (peptide)
peptide: GLLERVTRI
notes: Free peptide added to T2 cells; also called peptide 708
As for B4, in the assay with HLA-A*0201 on T2 cells [1], the “MFI (0 hour)” value was found to be 13.1 MFI, the “MFI (3 hour)” value was determined as 14.8 MFI and the “MFI (6 hour)” value stood at 1.3 MFI.

B5: CD133-804 (peptide)
peptide: FLLPALIFAV
notes: Free peptide added to T2 cells; also called peptide 804
On to B5, for which, in the assay with HLA-A*0201 on T2 cells [1], the “MFI (0 hour)” value stood at 89 MFI, the “MFI (3 hour)” value stood at 67.6 MFI and the “MFI (6 hour)” value turned out to be 34.7 MFI.

As to ILSAFSVYV (Free peptide added to T2 cells) [CD133-405], in the assay with HLA-A*0201 on T2 cells [1], the “MFI (0 hour)” value is 79.7 MFI, the “MFI (3 hour)” value came out at 69.3 MFI and the “MFI (6 hour)” value was 44.5 MFI.
